Experimental data from the nanobody polyreactivity screen of Harvey et al. (2022).

Test: yeast display, Sf9 membrane polyspecificity reagent, FACS + sequencing; frameworks hold sequencing errors
Method in brief: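 Sorting gates, low and high (top ~1%), were placed on anti-HA fluorescence to track expression and on streptavidin fluorescence to track reagent binding. A clone's polyreactivity label is taken from the gate it came out of. The reagent was 10% biotinylated, detergent-solubilized Sf9 membrane, applied for 1 hour at 4 °C to galactose-induced yeast display cells.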

| Sequence | polyreactivity (PSR sort gate) |
| --- | --- |
| QVQLVESGGGLVQAGGSLRLSCAASGSTFQYYDMGWYRQAPGKERELVASITGSGDSTYYADSVKGRFTISRDNAKNTVYLQMNSLKPEDSAVYYCAAQNTWSGDYDYWGQGTQVTVSS | low polyreactivity |
| QVQLVESGGGLVQAGGSLRLSCAASGSTFRANAMGWYRQAPGKERELVAAISSGGSTYYADSVKGRFTISRDNAKNTVYLQMNSLKPEDTAVYYCAAVTVKYDESGIYYSDDDYWGQGTQVTVSS | high polyreactivity |
| QVQLVESGGGLVQAGGSLRLSCAASGSTFRANLMGRYRQAPGKERELVAAITSAGGSTYYADSVKGRFTISRDNAKNTVYIQMNSLKPEDTAVYYCNKQERPGPGRARYNYWGQGTQVTVSS | high polyreactivity |
| QVQLVESGGGLVQAGGSLRLSCAASGSTFRAYAMGWYRQAPGKEREFVADISWSGGSTYYADSVKGRFTISRDNAKNTVYLQMNSLKPEDSAVYYCAAEAAPLIIVTYDYWGQGTQVTVSS | low polyreactivity |
| QVQLVESGGGLVQAGGSLRLSCAASGSTFRDNAMGWYRQAPGTERELVAAISRRGGNTYYADSVKGRFTISRDNAKNTVYLQMNSLKPEDTAVYYCASEVKTSYSYTHDGYWGQGTKVTVSS | high polyreactivity |
| QVQLVESGGGLVQAGGSLRLSCAASGSTFRDNVMGWYRQAPGKEWEFVAAISSSVGSTYYADSVKGRFTISRDNAKNTVYLQMNSLKPEDTAVYYCAARLWPSYLSYGKTGDYWGQGTQVTVSS | high polyreactivity |
| QVQLVESGGGLVQAGGSLRLSCAASGSTFRDYAMGWYRQAPGKERELVAAITYSDGGTYYADSVKGRFTISRDNAKNTVYLQMNSLKPEDTAVYYCAADYPIYSFYYSAYFIFGYWGQGSQVTVSS | low polyreactivity |
| QVQLVESGGGLVQAGGSLRLSCAASGSTFRDYAMGWYRQAPGTERELVAAITSGGSTNYADSVKGRFTISRDNAKNSVYLQMISLKPEDTAVYYCNARYAGWYTPWGRQSVYSDDYWGQGTQVTVSS | low polyreactivity |
| QVQLVESGGGLVQAGGSLRLSCAASGSTFRDYDMGWYRQAPGKERELVAAISLSGGRTHYADSVKGRFTISRDNAKNTVYLQMNSLKPEDTAVYYCAARNTGPVQYYYWGQGTQVTVSS | low polyreactivity |
| QVQLVESGGGLVQAGGSLRLSCAASGSTFRFNTMGWYRQAPGKERELVAAITRGGSTNYADSVKGRFTISRDNAKNTVYLQMNSLKPEDTAVYYCNTTRYSVRKYDYWGQGTQVTVSS | low polyreactivity |
| QVQLVESGGGLVQAGGSLRLSCAASGSTFRFYAMGWYRQAPGKERELVAGITGSGDSTYYADSVKGRFTISRDNAKNTVYLQMNSLKPEDTAVYYCNKRFLFAGFDYLGQGTQVTVSS | low polyreactivity |
| QVQLVESGGGLVQAGGSLRLSCAASGSTFRGNAMGWYRQAPGKERELVAGISGSGGRTYYADSVKGRFTISRDNAKNTVYLQMNSLKPEDTAVYYCAARSTVYEYFYYRGWWEYYYWGQGTQVTVSS | low polyreactivity |
| QVQLVESGGGLVQAGGSLRLSCAASGSTFRGNAMGWYRQAPGKERELVATISRSNGGSTYYADSVKGRFTISRDIAKNTVYLQMNSLKPEDTEVYYCAARSYIGISTYGYWGLGTQVTVSS | low polyreactivity |
| QVQLVESGGGLVQAGGSLRLSCAASGSTFRGNAMGWYRQAPGNEREFVAAITVSGGSTYYADSVKGRFTSSRDNAKNTVYLQMISLKPEDTAVYYCAGLTRGRGYDSWGQGTQVTVSS | high polyreactivity |
| QVQLVESGGGLVQAGGSLRLSCAASGSTFRGYAMGWSRQAPGKERELVATITSGGSTKFADSVKGRVTISRDNAKNTVYLQMNSLKPEDTAVYYFNAGPRSWSPYRHWVDFWGQGTQVTVSS | low polyreactivity |
| QVQLVESGGGLVQAGGSLRLSCAASGSTFRGYAMGWYRQAPGKERELVAAISWSGGSTYYADSVKGRFTISRDNAKNTVYLQMNSLKPEDTAVYYCNAVLYRFAYNYWGQGTQVTVSS | low polyreactivity |
| QVQLVESGGGLVQAGGSLRLSCAASGSTFRGYVMGWYRQAPGKERELVAAITWGGGRTYYADSVKGRFTISRDNAKNTVYLQMNSLKPEDTAVYYCAARVRGQGSYQFGYWGQGTQVTVSS | high polyreactivity |
| QVQLVESGGGLVQAGGSLRLSCAASGSTFRGYVMGWYRQAPGKERELVASINWDGGSTYYADSVKGRFTISRDNAKNTVYLQMNSLKPEDTAVYYCAARRVGGGFYTWRNPAYEYWGQGTQVTVSS | high polyreactivity |
| QVQLVESGGGLVQAGGSLRLSCAASGSTFRIYAMGWYRQAPGKERELVAAISSGGRTNYADSVKGRFTISRDNAKNNVYLQMNSLKPEDTAVYYCNAVFLPTYHFDYWGQGTQVTVSS | high polyreactivity |
| QVQLVESGGGLVQAGGSLRLSCAASGSTFRIYAMGWYRQAPGKERELVAAISWSSGSTYYADSVKGRFTISRDNAKNTVYFQMNSLKPEDTAVYYCATYARRSGYYYWGQGTQVTVSS | high polyreactivity |

| Sequence | polyreactivity (PSR sort gate) |
| --- | --- |
| QVQLVESGGGLVQAGGSLRLSCAASGSTFRIYAMGWYRQAPGKERELVAAITSGGDTNYADSVKGRFTISRDNAKNTVYLQMNSLKPEDTAVYYCAADGHSVYTELDYWGQGTQVTVSS | low polyreactivity |
| QVQLVESGGGLVQAGGSLRLSCAASGSTFRKYAMGWYRQAPGKEREFVAAITWSTGTTYYADSVKGRFTISRDNAKNNVYLQMNSLKPEDTAVYYSAADSQPPHELDESIEHESWGQGTQVTVSS | low polyreactivity |
| QVQLVESGGGLVQAGGSLRLSCAASGSTFRKYAMGWYRQAPGKEREFVAAITWSTGTTYYADSVKGRFTISRDNAKNTVYLQMNSLIPEDTAVYYCAADSQPPHELYESIEHESWGQGTQVTVSS | low polyreactivity |
| QVQLVESGGGLVQAGGSLRLSCAASGSTFRLYAMGWYRQAPGKERELVAAISSRGGTTYYADSVKGRFTISRDNAKNTVYLQMNSLKPEDTAVYYCAAPRASQYGDDYWGQGTQVTVSS | high polyreactivity |
| QVQLVESGGGLVQAGGSLRLSCAASGSTFRNNAMGWYRQAPGKERELVAAISRGGGSTYYADSVKGRFTISRDNAKNTVYLQMNSLKPEDTAVYYCARRPTGIYDYWGQGTQVTVSS | high polyreactivity |
| QVQLVESGGGLVQAGGSLRLSCAASGSTFRNYAMGWYRQAPGKERELVAAISGSGGRTNYADSVKGRFTISRDNAKNTVYLQMNSLKPEDNAVYYCNARFPDWALSEISHSTTYGYWGQGTQVTVSS | low polyreactivity |
| QVQLVESGGGLVQAGGSLRLSCAASGSTFRNYAMGWYRQAPGKERELVAAISGSGGRTNYADSVKGRFTISRDNAKNTVYLQMNSLKPEDTAVYYCNGRFPDWALSEISHSTTYGYWGQGTQVTVSS | low polyreactivity |
| QVQLVESGGGLVQAGGSLRLSCAASGSTFRNYAMGWYRQAPGKERELVAAISRGDGTYYADSVKGRFTISRDNAKNTVYLQMNSLKPEDTAVYYCAAAYRGRQNPMGYWGQGTQVTVSS | high polyreactivity |
| QVQLVESGGGLVQAGGSLRLSCAASGSTFRNYSMGWYRQAPGKERELVAAISGSGGRTNYADSVKGRFTISRDNAKNTVYLQMNSLKPEDTAVYYCNADGGPGYPRAYDYWGQGTQVTVSS | low polyreactivity |
| QVQLVESGGGLVQAGGSLRLSCAASGSTFRPNAMGWYRQAPGKERELVAGISLNGTSTYYADSVKGRFTISRDNAKNTVYLQMNSLKPEDTAVYYCAADYQCGRGAEPYVFFDPEMDYWGQGTQVTVSS | low polyreactivity |
| QVQLVESGGGLVQAGGSLRLSCAASGSTFRPSAMGWYRQAPGKERELVAAIRSGRTSYADSVKGRFTISRDYAKNTVYLQMNSLKPEDTAVYYCAKASRGGYYWGQGTQVTVSS | high polyreactivity |
| QVQLVESGGGLVQAGGSLRLSCAASGSTFRPYAMGGYRQAPGKERELVARITGSGDSTYYADSVKGRFTISRDNAKNTVYLQMNSLKPEDTAVYYCAREFVFSLSGFDYWGQGTQVSVSS | low polyreactivity |
| QVQLVESGGGLVQAGGSLRLSCAASGSTFRPYAMGWYRPAPGKEREFVASISNTGGSTSYADSVKGRFTISRDNAMNTVYFQMNSLKPEDTAVYYCAARFGYRPWYRMDYWGQGTQVAVSS | high polyreactivity |
| QVQLVESGGGLVQAGGSLRLSCAASGSTFRPYAMGWYRQAPGKERELVARITKNGGSTYYADSVKGRFTISRDNAKNTVYLQMNSLKPEDTEVYYCAVRAWDPYTGKSDYWGQGTQVTVSS | low polyreactivity |
| QVQLVESGGGLVQAGGSLRLSCAASGSTFRQYAMGWYRQAPGKERELVAAISTNGVSTRYADSVKGRFTISRDNAKNTVYLQMNSLKPEDTAVYSCAAGYRKSYTYYRYDYWGQGTQVTVSS | high polyreactivity |
| QVQLVESGGGLVQAGGSLRLSCAASGSTFRQYAMGWYRQAPGKERELVAATTSSGGSTYYADSVKGRFTISRDNAKNTVYLQMNSLKPDDTAVYYCNVDGRSDGDDYWGQGTHVTVSS | low polyreactivity |
| QVQLVESGGGLVQAGGSLRLSCAASGSTFRQYTMGWYRQAPGKERELVAAISRGCGNTYYADSVKGRFTISRDNAKNTVYLQMNSLKPEDTAVYYCAADRSYSGDSWGQGTQVTVSS | high polyreactivity |
| QVQLVESGGGLVQAGGSLRLSCAASGSTFRRNAMGWYRQAPGKERELVAAITWRGGSTSYADSVKGRFTISRDNAKNTVYLQMNSLKPEDTGVYYCAAVKGHSQVLSYGYWGQGTQVTVSS | low polyreactivity |
| QVQLVESGGGLVQAGGSLRLSCAASGSTFRRYAMGWNRKAPGKERELVAAISGRGGSTSYADSVTGRFTISRDNAKNTVFLQMNSLKPEETAVYYCAADDKYFYPGNGYWGQGTQVTVSS | high polyreactivity |
| QVQLVESGGGLVQAGGSLRLSCAASGSTFRRYAMGWYRPAPGKERELVAVITSRGGSTYYADSVKGRFTISRDNAKNTVYLQMNSLKPEDTAVYYCAAGYTSGYWANHYTPRFYYWGQGTQVTVSS | high polyreactivity |
